Target: T1, DnaAΔC with a C-terminal hexa-histidine tag (B. subtilis, UniProt P05648 1-355)
T1 sequence (looked up): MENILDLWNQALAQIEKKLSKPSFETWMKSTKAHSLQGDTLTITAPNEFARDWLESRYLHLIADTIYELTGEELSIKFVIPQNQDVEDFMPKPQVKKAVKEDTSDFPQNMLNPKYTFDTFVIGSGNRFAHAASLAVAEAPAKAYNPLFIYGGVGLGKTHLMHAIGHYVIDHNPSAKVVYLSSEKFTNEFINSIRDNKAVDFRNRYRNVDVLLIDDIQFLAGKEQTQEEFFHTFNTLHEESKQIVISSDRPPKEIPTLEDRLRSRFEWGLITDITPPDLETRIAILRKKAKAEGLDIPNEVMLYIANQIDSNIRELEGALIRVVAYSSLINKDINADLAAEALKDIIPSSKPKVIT
Assay: native gel or EMSA

binding result: binds
B1: Rok with a C-terminal hexa-histidine tag (natural protein, B. subtilis, UniProt O34857 1-191, looked up)
chain: MFNEREALRLRLEQLNEAEVKVIREYQIERDKIYAKLRELDRNGSPSEIKKDFRSEKKPDSLPVLAELAAQEIRSYQPQSQQQSVQPQLQSISSLPAGIPDGTTRRRRGTARPGSKAAKLREAAIKTLKRHNAAIKSSELQKEIEKESGLEIPNMTTFMQSLIKMYPEVKKPYRGQYILEGEIESAESANE
